Results reported in the DeepSol protein solubility set.

Test: soluble on expression in E. coli; label from the status in PepcDB or PDB records

Sequence	soluble on expression in E. coli
MGSDKIHHHHHHMAQQPLAYRMRPQRLEDIVGQQDLVAPGKIIARMVAAKLLSSMILYGPPGTGKTSIASAIAGSTQYAFRKLNAATDSKKDLQIVAEEAKMSGTVILLLDEIHRLDKTKQDFLLPHLESGRIVLIGATTENPYININPAIRSRTQIFEVHPLTPDDIKIALHRALTDTENGLGKLPIDLNTEALNFIAGATNGDLRSALNGLELAAQSTPAANDDRIHITLAVAEACFQRKALMGDKDGDAHYDVISAFQKSIRGSDTDAALHYLAQLVAAGDLPAICRRLMVIAYEDIGMANLPAAARTVQAVQAAQQLGLPEGRIPLADAVIELCLSPKSDSGISAIDAALADVLNGHNGAVPDHLKDAHYAGAKKLGHGTDYKYPHNFPNDWVKQQYLPDTLKNAEYYHPKTNGRFETQLAQQYRRLLTANRH	not soluble
MKRLIVGISGASGAIYGVRLLQVLRDVTDIETHLVMSQAARQTLSLETDFSLREVQALADVTHDARDIAASISSGSFQTLGMVILPCSIKTLSGIVHSYTDGLLTRAADVVLKERRPLVLCVRETPLHLGHLRLMTQAAEIGAVIMPPVPAFYHRPQSLDDVINQTVNRVLDQFAITLPEDLFARWQGA	not soluble
MSYNEKSEAIIKEEWLQRLEQFPFKQADMNRLIMNYLVTEGFKEAAEKFQHEADLEPSVELSSLDGRILIREAVQAGRIEEATQLVNQLHPELLGSDRYLFFHLQQLQLIELIRAGKVEEALSFAQSKLSESGEEAMFELERTLALLAFEKPQESPFADLLEQSYRQKIASELNSAILRCEQSEDSTPKMMFLLKLILWAQSKLDSRSISYPKMKNLETAHLEPKLEHHHHHH	not soluble
MGSDKIHHHHHHAKPVTSETMAAKTVGLQIYSLGKELYADVPGGLKKIKQMGYTNLELAGYKEGKIGGVDMMEFKKMVDDAGLKITSSHVNPPVREYTKANRSQISEYWKKTADDHAKLGVKYLIQPGQPSTRSTEETAFVCEIFNEAGKIVKAAGIPFGYHNHEMEFAKVNPGSTEAKLGRRVKGDCIYELFLKNTDPSLVFFEMDVYWAVMGQQDPIEWLKKYPNRIKVLHIKDRAILGESGMMNFENIFRQAYANGIKDYFVELEGMPDGRSQFEGVKGCVDYLLKAPFVK	not soluble
SAENERMYISYNNIHKLCQGVAKHILARNERPDIIIAITGGGMIPARIIRSFLKTKGQKNIPIQAIGLSLYEDLGLDNSVETIGKEVIRTQWLDFGALNQHFDSLIGKKVLIVDEVDDTRTTLHYAVSELEKEIAEQQKVLNRMSEETVISIFVLHNKDKPKRAGLPDSMMNSGRYIAAQTVPDKWLCYPWDAEDIEEHTMLAKAQGHD	soluble
GLGEKKEGHFSALPSLPVGSHAKVSSPQPRGPRYAEGTFISDYSIAMDKIHQQDFVNWLLAQKGKKNDWKHNITQREARALELASQANRKEEEAVEPQSSPAKNPSDEDLLRDLLIQELLACLLDQTNLCRLRSR	soluble
MSKENIVTRENTAVSENAVSEPTVNNDVGASATNSVTHPAFTLNVRPDNIGIITIDVVGDKVNTLKAEFADQIATILQQAHALPKLQGLVIVSGKPDSFIAGADITMIAACRTAHDARVLAQKGQSILAQIAAFPVPVVAAIHGACLGGGLELALACHSRICSLDDKTVLGLPEVQLGLLPGSGGTQRLPRLVGVSKALDMILTGKQIRPRQALKMGLVDDVVPRDILLDVAIQRAKAGWLNRRALPWQERLLSGPLGKALLFRIVRKKTLAKTRGHYPAAERIIDVVRKGLDQGGPSGYEAEARAFGELAMSPQSAALRSLFFATTSLKKETGSAATARAIHRVGVLGGGLMGGGIANVTATRAGLPVRIKDINPQGINQALKYTWDALGKRVRSKRMRPTEQQRQMMLISGSTDYRGFERVDIVVEAVFEDLSLKQQMVADIERFGAAHTIFASNTSSLPISQIAALAQRPEQVIGLHYFSPVDKMPLVEVIPHEKTSEETIATTVALARKQGKTAIVVADRAGFYVNRILAPYINEAARCLLDGEPIESVDNALVDFGFPVGPMMLLDEVGIDVATKIMPILVEQLGPRFAAPPSFDVILKDGRKGRKNGRGFYLYSNPTKNSSPTKNGNSPAKRNSFKWRKNKVKPVDASIYTLLGVTPKAHLGAGVITQRCTMLMLNEAVRCLDESIIRNPRDGDIGAVFGIGFPPFLGGPFRYLDSLGADKVVQALRLLVQQYGERFEPCQRLVTMAEQQQQFYPVDANIDEVTDVAS	not soluble
MSLVMDSLIIKQLIKSTFDIPLQVTYPNGNIETYNGSNPHVKLKLNKNFSVSELSKDPSIVLGEAVMDGDIEIYGSIQELILSAYRCGDSFLRNSKFSKLIPKQFHDKKHSKSDIQKHYDIGNDFYKLWLDDTMTYSCAYFKHENDSLEQAQLNKVHHILNKLNAQPGGKLLDIGCGWGTLIITAAKEYGLNATGITLSEEQASFITKRIKEEGLENKVTVLIKDYRDIRETYDYITSVGMFEHVGKENLSQYFQTISKRLNINGLALIHGITGQVGGNHGSGTNSWINKYIFPGGYIPRLTENLNHIASAGLQIADLEPLRRHYQKTLELWTKNFHNALPEVQKTHDKRFINMWDLYLQSCAASFESGNIDIFQYLLSKGVSKDTMPMTRDYMYSANEGHHHHHH	soluble
MPTPTTLSEWQLLAVLSKANLVQYYDVFIAQGGDDINQIMACEEREFLEIMNLVGMLPKPLHVRRMQRALAEYSQDQTAFNLAALQQIGPPPPLNYTPAGTDPMALLLPGIAAATSPKFPSLRFLSQLSSVAEKVSTPSEAADTSSSSPSLNLNTTSSNSVPLAFKFSTPLLESLASDQQSSSTSSVRSVLPSTSSNTSHPELPAGILPATTTNVSAAVPPPSSRATANVFSGNSIGLNFSGAASVTRHLVVPPSSTSIQQPSTSFGRSSSITGQEKEGSSSPFLGVGYSQPYGNDFVSLGDFDPNNPSLTENPTLSTAQISRLAECALAASKNLPPLPPRLVQNKKRVSKEVIELLKCSPATPSMIHAFRKYSAIYGRFDTKRKPHKVLTLHETTVNEAAAQLCLLVPSLLTRRDELFPLARQIVKDAGYNYAKSRKRPCDPADLHSPISSPGNSPPPQESEFDEQPSSSSGAFKEEERPPIPPEAWAAIIEKMKGELPES	not soluble
MGSDKIHHHHHHQQKSADVVENQFTTIKEVPITPVKDQANSGTCWSYSALGFLESEILRMGKPEVDLAEMHSVAQSYKDKGEKYVRMHGKLNFGQGGSFYDVLYVVKHYGVVPQSVMQGLNYGTKKNAHSELADGALAYLKAIVTNPNGKLTPAWKKAYDGIIDSYLGTCPETFTYEGKTYTPKSFAQYLGLNVDDYVSLTSYTHHPFYTQFALEIEDNWRGSLSYNMPINELMETMEYAINNGYSIAWGSDVSEVGFTRDGIGVLADVEGIEAKGSDQDRWVGLSRAEKQAEIIRTVNSADCPEINPTQEFRQKGYDEYSLTDDHGMVIYGIAKNQNGRKFFMVKNSWGETGKYKGIWYASYNFVAGRTMNIIVHKKAIPAAIAKKLGIRQ	not soluble
MGSDKIHHHHHHMLTRTHEAIPEIMYRIGDLADETGLPCYIVGGYVRDLIMQRPCTDIDIMVIGEPVPFAHALAEKLGGRNFVLFERFRTAQLELDDPKAGTFKLEIVGARKESYNPESRKPITSIGTLEDDLSRRDFTINALALRLNRKERGEVVDLFDGQRHIREKLLKTPLDPEQTFSDDPLRMMRAARFACQLDFQLDEATLTAMSTMSSRIQIVSRERVSHEFFKIMEARKPSIGLKILYSTGLLKEIIPELTVMAGIEQVDGLGHKDTLFHTFQVVDNLAEHSDKLWLRVSALFHDIAKPVTKRFHPGSGWTFHGHEAVGVKIVARIFRAMKWPLEPMEYVQKMVRLHHRPIPLSKEEITDSAVRRLMFDAGPDLDDLMTLCRADVTSKNPRKVQRIMKNFSNVEAKIAEVGEKDLLAKWRPPVSGTDIMELLNLPQGRTVGIIKSRMENAIIDGDIPYDRQAALDYIQQVYREMQEKGEA	not soluble
MSLFIDKQTVERHFSKSAHLYDGVNHVQRKMAHRLVQLLDEKRRDAKDEPRAILDIGCGTGWLTRECLKSFPQATIDAVDLSKQMLEVAEKNVSSHPNVQFIQGDIEKMVREKPSAKTYDVIVANAVFQWLDKPTETVAQLRSWLKPNGLLLFSTFGPDTFYELHDSFQLAAKQLGIIDERRGLDYLSKTEWKRTLDGLFAELTIHEEKAIESYATVEQFLHTVKKMGATYSQSSRPLSKRYYQLMKEIYEQRYRTEDSIPATYDCLYVLCQAEGHHHHHH	soluble
